{
  "source": "paper PMC9482650",
  "about": "“Quantitative fragmentomics allow affinity mapping of interactomes” (Nature Communications, 2022)",
  "data": [
    {"biological_target": "T1, APBA2_1, Q99767", "T1 sequence (Q99767 563-664, limits assumed, looked up)": "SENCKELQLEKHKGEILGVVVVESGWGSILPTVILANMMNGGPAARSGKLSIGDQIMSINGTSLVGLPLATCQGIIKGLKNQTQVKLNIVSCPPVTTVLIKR", "test": "holdup assay", "set-up": "key: below the threshold = too weak to quantify, mostly under pKd 3.1 to 4", "conditions": "plain residues with an end cap or a label only (N-terminal biotin on a linker: ado-ado)", "values": [
      {"binder": "RDFDYIADWC", "note": "[PKN2, Q16513]", "pKd": "below the threshold"}
    ]},
    {"biological_target": "T2, APBA3_1, O96018", "T2 sequence (O96018 389-490, limits assumed, looked up)": "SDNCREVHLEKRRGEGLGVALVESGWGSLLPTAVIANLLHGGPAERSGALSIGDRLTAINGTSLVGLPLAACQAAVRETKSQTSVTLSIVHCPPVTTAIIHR", "test": "holdup assay", "set-up": "key: below the threshold = too weak to quantify, mostly under pKd 3.1 to 4", "conditions": "plain residues with an end cap or a label only (N-terminal biotin on a linker: ado-ado)", "values": [
      {"binder": "RDFDYIADWC", "note": "[PKN2, Q16513]", "pKd": "below the threshold"}
    ]},
    {"biological_target": "T3, ARHGEF11, O15085", "T3 sequence (O15085 42-136, limits assumed, looked up)": "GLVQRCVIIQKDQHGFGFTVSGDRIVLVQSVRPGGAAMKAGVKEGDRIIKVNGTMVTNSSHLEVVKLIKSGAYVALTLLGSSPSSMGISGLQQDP", "test": "holdup assay", "set-up": "key: below the threshold = too weak to quantify, mostly under pKd 3.1 to 4", "conditions": "plain residues with an end cap or a label only (N-terminal biotin on a linker: ado-ado)", "values": [
      {"binder": "RDFDYIADWC", "note": "[PKN2, Q16513]", "pKd": 3.68}
    ]},
    {"biological_target": "ARHGEF12, Q9NZN5-2", "sequence (Q9NZN5 other isoform, or with tags, fused parts or gaps)": "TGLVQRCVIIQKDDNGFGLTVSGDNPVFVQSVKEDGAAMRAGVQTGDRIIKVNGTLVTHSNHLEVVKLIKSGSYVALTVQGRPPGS", "test": "holdup assay", "set-up": "key: below the threshold = too weak to quantify, mostly under pKd 3.1 to 4", "conditions": "plain residues with an end cap or a label only (N-terminal biotin on a linker: ado-ado)", "values": [
      {"binder": "RDFDYIADWC", "note": "[PKN2, Q16513]", "pKd": "below the threshold"}
    ]},
    {"biological_target": "T4, CARD11, Q9BXL7", "T4 sequence (Q9BXL7 662-765, limits assumed, looked up)": "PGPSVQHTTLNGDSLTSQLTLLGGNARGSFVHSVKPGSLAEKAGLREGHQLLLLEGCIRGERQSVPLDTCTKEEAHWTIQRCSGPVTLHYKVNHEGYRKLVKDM", "test": "holdup assay", "set-up": "key: below the threshold = too weak to quantify, mostly under pKd 3.1 to 4", "conditions": "plain residues with an end cap or a label only (N-terminal biotin on a linker: ado-ado)", "values": [
      {"binder": "RDFDYIADWC", "note": "[PKN2, Q16513]", "pKd": "below the threshold"}
    ]},
    {"biological_target": "CASK, O14936", "sequence (O14936 487-570)": "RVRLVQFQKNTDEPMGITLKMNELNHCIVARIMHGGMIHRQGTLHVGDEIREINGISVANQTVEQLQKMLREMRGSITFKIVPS", "test": "holdup assay", "set-up": "key: below the threshold = too weak to quantify, mostly under pKd 3.1 to 4", "conditions": "plain residues with an end cap or a label only (N-terminal biotin on a linker: ado-ado)", "values": [
      {"binder": "RDFDYIADWC", "note": "[PKN2, Q16513]", "pKd": 3.54}
    ]},
    {"biological_target": "DLG5_1, Q8TDM6", "sequence (Q8TDM6 617-713)": "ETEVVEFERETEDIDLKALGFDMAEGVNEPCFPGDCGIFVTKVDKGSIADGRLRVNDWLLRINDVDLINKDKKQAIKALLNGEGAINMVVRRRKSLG", "test": "holdup assay", "set-up": "key: below the threshold = too weak to quantify, mostly under pKd 3.1 to 4", "conditions": "plain residues with an end cap or a label only (N-terminal biotin on a linker: ado-ado)", "values": [
      {"binder": "RDFDYIADWC", "note": "[PKN2, Q16513]", "pKd": "below the threshold"}
    ]},
    {"biological_target": "T5, DVL3, Q92997", "T5 sequence (Q92997 244-331, limits assumed, looked up)": "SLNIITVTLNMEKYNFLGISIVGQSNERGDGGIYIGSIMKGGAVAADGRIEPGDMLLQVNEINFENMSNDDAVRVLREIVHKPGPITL", "test": "holdup assay", "set-up": "key: below the threshold = too weak to quantify, mostly under pKd 3.1 to 4", "conditions": "plain residues with an end cap or a label only (N-terminal biotin on a linker: ado-ado)", "values": [
      {"binder": "RDFDYIADWC", "note": "[PKN2, Q16513]", "pKd": "below the threshold"}
    ]},
    {"biological_target": "T6, FRMPD1, Q5SYB0", "T6 sequence (Q5SYB0 52-145, limits assumed, looked up)": "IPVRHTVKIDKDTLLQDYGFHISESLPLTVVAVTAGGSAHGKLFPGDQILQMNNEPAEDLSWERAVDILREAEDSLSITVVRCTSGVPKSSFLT", "test": "holdup assay", "set-up": "key: below the threshold = too weak to quantify, mostly under pKd 3.1 to 4", "conditions": "plain residues with an end cap or a label only (N-terminal biotin on a linker: ado-ado)", "values": [
      {"binder": "RDFDYIADWC", "note": "[PKN2, Q16513]", "pKd": "below the threshold"}
    ]},
    {"biological_target": "T7, GRIP1_2, Q9Y3R0", "T7 sequence (Q9Y3R0 145-248, limits assumed, looked up)": "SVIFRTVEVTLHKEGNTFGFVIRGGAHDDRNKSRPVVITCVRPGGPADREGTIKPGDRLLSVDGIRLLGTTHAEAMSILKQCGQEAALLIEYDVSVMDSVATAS", "test": "holdup assay", "set-up": "key: below the threshold = too weak to quantify, mostly under pKd 3.1 to 4", "conditions": "plain residues with an end cap or a label only (N-terminal biotin on a linker: ado-ado)", "values": [
      {"binder": "RDFDYIADWC", "note": "[PKN2, Q16513]", "pKd": 3.7}
    ]},
    {"biological_target": "GRIP2_3, Q9C0E4", "sequence (Q9C0E4 238-339)": "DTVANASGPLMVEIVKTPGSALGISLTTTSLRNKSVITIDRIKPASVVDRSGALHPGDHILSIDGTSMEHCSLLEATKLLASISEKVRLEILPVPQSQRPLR", "test": "holdup assay", "set-up": "key: below the threshold = too weak to quantify, mostly under pKd 3.1 to 4", "conditions": "plain residues with an end cap or a label only (N-terminal biotin on a linker: ado-ado)", "values": [
      {"binder": "RDFDYIADWC", "note": "[PKN2, Q16513]", "pKd": "below the threshold"}
    ]},
    {"biological_target": "GRIP2_6, Q9C0E4", "sequence (Q9C0E4 648-740)": "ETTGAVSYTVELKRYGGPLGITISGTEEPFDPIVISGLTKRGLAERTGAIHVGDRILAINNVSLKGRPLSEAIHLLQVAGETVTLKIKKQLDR", "test": "holdup assay", "set-up": "key: below the threshold = too weak to quantify, mostly under pKd 3.1 to 4", "conditions": "plain residues with an end cap or a label only (N-terminal biotin on a linker: ado-ado)", "values": [
      {"binder": "RDFDYIADWC", "note": "[PKN2, Q16513]", "pKd": "below the threshold"}
    ]},
    {"biological_target": "HTRA2, O43464", "sequence (O43464 355-458)": "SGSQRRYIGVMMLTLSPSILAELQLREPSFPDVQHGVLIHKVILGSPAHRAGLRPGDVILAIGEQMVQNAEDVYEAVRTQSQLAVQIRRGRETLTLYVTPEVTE", "test": "holdup assay", "set-up": "key: below the threshold = too weak to quantify, mostly under pKd 3.1 to 4", "conditions": "plain residues with an end cap or a label only (N-terminal biotin on a linker: ado-ado)", "values": [
      {"binder": "RDFDYIADWC", "note": "[PKN2, Q16513]", "pKd": 5.11}
    ]},
    {"biological_target": "IL16_1, Q14005", "sequence (Q14005 210-306)": "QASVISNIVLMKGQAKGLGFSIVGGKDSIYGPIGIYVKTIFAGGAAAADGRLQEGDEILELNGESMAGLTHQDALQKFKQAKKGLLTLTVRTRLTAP", "test": "holdup assay", "set-up": "key: below the threshold = too weak to quantify, mostly under pKd 3.1 to 4", "conditions": "plain residues with an end cap or a label only (N-terminal biotin on a linker: ado-ado)", "values": [
      {"binder": "RDFDYIADWC", "note": "[PKN2, Q16513]", "pKd": "below the threshold"}
    ]},
    {"biological_target": "Inadl_6, Q8NI35", "sequence (Q8NI35 1058-1167)": "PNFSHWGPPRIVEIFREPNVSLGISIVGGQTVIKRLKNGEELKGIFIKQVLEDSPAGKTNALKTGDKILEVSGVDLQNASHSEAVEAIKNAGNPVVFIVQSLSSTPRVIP", "test": "holdup assay", "set-up": "key: below the threshold = too weak to quantify, mostly under pKd 3.1 to 4", "conditions": "plain residues with an end cap or a label only (N-terminal biotin on a linker: ado-ado)", "values": [
      {"binder": "RDFDYIADWC", "note": "[PKN2, Q16513]", "pKd": 3.56}
    ]},
    {"biological_target": "MAGI2_6, Q86UL8", "sequence (Q86UL8 1141-1229)": "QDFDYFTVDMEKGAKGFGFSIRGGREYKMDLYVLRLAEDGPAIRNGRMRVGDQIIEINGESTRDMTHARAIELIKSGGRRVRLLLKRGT", "test": "holdup assay", "set-up": "key: below the threshold = too weak to quantify, mostly under pKd 3.1 to 4", "conditions": "plain residues with an end cap or a label only (N-terminal biotin on a linker: ado-ado)", "values": [
      {"binder": "RDFDYIADWC", "note": "[PKN2, Q16513]", "pKd": 3.77}
    ]},
    {"biological_target": "T8, MPP6, Q9NZW5", "T8 sequence (Q9NZW5 125-219, limits assumed, looked up)": "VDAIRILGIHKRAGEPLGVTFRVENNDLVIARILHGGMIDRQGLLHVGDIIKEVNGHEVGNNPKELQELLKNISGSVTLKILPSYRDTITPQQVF", "test": "holdup assay", "set-up": "key: below the threshold = too weak to quantify, mostly under pKd 3.1 to 4", "conditions": "plain residues with an end cap or a label only (N-terminal biotin on a linker: ado-ado)", "values": [
      {"binder": "RDFDYIADWC", "note": "[PKN2, Q16513]", "pKd": "below the threshold"}
    ]},
    {"biological_target": "T9, NHERF3_1, Q5T2W1", "T9 sequence (Q5T2W1 4-100, limits assumed, looked up)": "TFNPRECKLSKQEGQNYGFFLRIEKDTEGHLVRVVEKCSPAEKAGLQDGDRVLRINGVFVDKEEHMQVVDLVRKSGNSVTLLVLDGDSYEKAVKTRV", "test": "holdup assay", "set-up": "key: below the threshold = too weak to quantify, mostly under pKd 3.1 to 4", "conditions": "plain residues with an end cap or a label only (N-terminal biotin on a linker: ado-ado)", "values": [
      {"binder": "RDFDYIADWC", "note": "[PKN2, Q16513]", "pKd": 4.27}
    ]},
    {"biological_target": "NHERF4_2, Q86UT5", "sequence (Q86UT5 220-308)": "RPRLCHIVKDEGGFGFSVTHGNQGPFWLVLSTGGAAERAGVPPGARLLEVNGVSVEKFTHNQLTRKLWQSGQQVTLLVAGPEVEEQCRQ", "test": "holdup assay", "set-up": "key: below the threshold = too weak to quantify, mostly under pKd 3.1 to 4", "conditions": "plain residues with an end cap or a label only (N-terminal biotin on a linker: ado-ado)", "values": [
      {"binder": "RDFDYIADWC", "note": "[PKN2, Q16513]", "pKd": "below the threshold"}
    ]},
    {"biological_target": "NOS1, P29475", "sequence (P29475 9-101)": "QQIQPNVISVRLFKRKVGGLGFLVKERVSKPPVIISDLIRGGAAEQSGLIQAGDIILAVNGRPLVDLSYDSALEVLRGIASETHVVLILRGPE", "test": "holdup assay", "set-up": "key: below the threshold = too weak to quantify, mostly under pKd 3.1 to 4", "conditions": "plain residues with an end cap or a label only (N-terminal biotin on a linker: ado-ado)", "values": [
      {"binder": "RDFDYIADWC", "note": "[PKN2, Q16513]", "pKd": 4.12}
    ]},
    {"biological_target": "T10, PCLO, Q9Y6V0", "T10 sequence (Q9Y6V0 4491-4600, limits assumed, looked up)": "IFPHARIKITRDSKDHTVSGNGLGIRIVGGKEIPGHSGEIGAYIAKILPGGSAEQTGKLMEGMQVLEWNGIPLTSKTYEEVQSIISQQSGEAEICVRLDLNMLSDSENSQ", "test": "holdup assay", "set-up": "key: below the threshold = too weak to quantify, mostly under pKd 3.1 to 4", "conditions": "plain residues with an end cap or a label only (N-terminal biotin on a linker: ado-ado)", "values": [
      {"binder": "RDFDYIADWC", "note": "[PKN2, Q16513]", "pKd": "below the threshold"}
    ]},
    {"biological_target": "PICK1, Q9NRD5", "sequence (Q9NRD5 17-115)": "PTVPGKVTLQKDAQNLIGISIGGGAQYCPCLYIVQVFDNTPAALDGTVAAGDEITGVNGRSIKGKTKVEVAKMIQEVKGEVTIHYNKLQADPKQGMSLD", "test": "holdup assay", "set-up": "key: below the threshold = too weak to quantify, mostly under pKd 3.1 to 4", "conditions": "plain residues with an end cap or a label only (N-terminal biotin on a linker: ado-ado)", "values": [
      {"binder": "RDFDYIADWC", "note": "[PKN2, Q16513]", "pKd": 4.06}
    ]},
    {"biological_target": "T11, SNTA1, Q13424", "T11 sequence (Q13424 82-180, limits assumed, looked up)": "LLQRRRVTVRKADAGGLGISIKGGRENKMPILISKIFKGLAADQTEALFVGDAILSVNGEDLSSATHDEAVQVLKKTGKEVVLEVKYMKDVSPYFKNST", "test": "holdup assay", "set-up": "key: below the threshold = too weak to quantify, mostly under pKd 3.1 to 4", "conditions": "plain residues with an end cap or a label only (N-terminal biotin on a linker: ado-ado)", "values": [
      {"binder": "RDFDYIADWC", "note": "[PKN2, Q16513]", "pKd": "below the threshold"}
    ]},
    {"biological_target": "T12, TIAM2, Q8IVF5", "T12 sequence (Q8IVF5 885-986, limits assumed, looked up)": "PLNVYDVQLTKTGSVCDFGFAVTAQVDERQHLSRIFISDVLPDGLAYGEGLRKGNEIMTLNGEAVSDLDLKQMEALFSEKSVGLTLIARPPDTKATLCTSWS", "test": "holdup assay", "set-up": "key: below the threshold = too weak to quantify, mostly under pKd 3.1 to 4", "conditions": "plain residues with an end cap or a label only (N-terminal biotin on a linker: ado-ado)", "values": [
      {"binder": "RDFDYIADWC", "note": "[PKN2, Q16513]", "pKd": 4.19}
    ]},
    {"biological_target": "T13, TJP3_3, O95049", "T13 sequence (O95049 375-456, limits assumed, looked up)": "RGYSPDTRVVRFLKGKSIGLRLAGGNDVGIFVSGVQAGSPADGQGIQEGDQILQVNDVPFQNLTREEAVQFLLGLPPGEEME", "test": "holdup assay", "set-up": "key: below the threshold = too weak to quantify, mostly under pKd 3.1 to 4", "conditions": "plain residues with an end cap or a label only (N-terminal biotin on a linker: ado-ado)", "values": [
      {"binder": "RDFDYIADWC", "note": "[PKN2, Q16513]", "pKd": 4.57}
    ]}
  ]
}
